Reference: patent publication US20240084023A1 (NGM BIOPHARMACEUTICALS, published 2024)

What was measured:
[1] = target: T1, soluble human GCGR extracellular domain (human, UniProt P47871 26-136, limits assumed); experiment: Octet epitope binning; antibody in solution on GCGR ECD held by immobilized 13G9 (competitor)
T1 construct: also called soluble GCGR
Protocol: (§1) KD values for exemplary antibodies were derived using ForteBio software. Exemplary antibodies 6B5, 13G19, 14E9, 14F4, 4F8, 1G7, l A8, I H7, 1A2, 1B4, 1C1, 1H2, 1C3, and 1D2 were immobilized on biosensor tips. Soluble human GCGR extracellular domain (500 nM) was incubated with the antibodies for 3 minutes. […] The biosensor tips with bound antibody-GCGR complex were then dipped in 61B5, 5B11, or 3H-15 antibody solution and the change in signal measured as a nm shift. If the antibody in solution recognized the same epitope as the antibody immobilized on the chip surface, then <0.1 nm shift in signal (noise level of Octet) would be observed. If the antibody in solution recognized a distinct epitope relative to the immobilized antibody, an increase in signal of >0.15 nm shift would be observed. In the latter scenario, the antibody in solution could bind to the immobilized antibody-GCGR complex (presumably to a different epitope) resulting in the observed increase in signal.

[2] = target: T1, soluble human GCGR extracellular domain; experiment: Octet epitope binning; antibody in solution on GCGR ECD held by immobilized 14E9 (competitor)
Protocol: as §1

[3] = target: T1, soluble human GCGR extracellular domain; experiment: Octet epitope binning; antibody in solution on GCGR ECD held by immobilized 1A2 (competitor)
Protocol: as §1

[4] = target: T1, soluble human GCGR extracellular domain; experiment: Octet epitope binning; antibody in solution on GCGR ECD held by immobilized 6B5 (competitor)
Protocol: as §1

[5] = target: T1, soluble human GCGR extracellular domain; experiment: Biacore SPR, captured antibody, soluble human GCGR extracellular domain as analyte
Protocol: In some experiments, supernatants were screened for binding to human GCGR using a Biacore SPR system. Briefly, anti-mouse Fc antibody (Sigma-Aldrich) was immobilized on all four flow cells of a CM5 chip using amine coupling reagents (GE Healthcare LifeSciences). Hybridoma supernatants were diluted three-fold with PBS-P buffer (PBS containing 0.005% P20) and injected for 30 seconds overflow cells 2, 3 and 4 to capture the test antibodies and using flow cell 1 as a reference. The next step was an injection of soluble human GCGR extracellular domain (100 nM in PBS-P buffer) at a flow rate of 50 μL/min and monitoring of the binding kinetics at 25° C. Kinetic data were collected over time and fit using the simultaneous global fit equation to yield affinity constants (KD values) for each antibody.

[6] = target: T1, soluble human GCGR extracellular domain; experiment: Octet epitope binning; antibody in solution on GCGR ECD held by immobilized 1A8 (competitor)
Protocol: as §1

[7] = target: T1, soluble human GCGR extracellular domain; experiment: Octet epitope binning; antibody in solution on GCGR ECD held by immobilized 4F8 (competitor)
Protocol: as §1

[8] = target: T1, soluble human GCGR extracellular domain; experiment: Octet epitope binning; antibody in solution on GCGR ECD held by immobilized 1H2 (competitor)
Protocol: as §1

[9] = target: full-length human GCGR on CHO cells (human, UniProt P47871 26-477); experiment: cell-based or functional assay
full-length human GCGR on CHO cells, sequence (P47871 26-477): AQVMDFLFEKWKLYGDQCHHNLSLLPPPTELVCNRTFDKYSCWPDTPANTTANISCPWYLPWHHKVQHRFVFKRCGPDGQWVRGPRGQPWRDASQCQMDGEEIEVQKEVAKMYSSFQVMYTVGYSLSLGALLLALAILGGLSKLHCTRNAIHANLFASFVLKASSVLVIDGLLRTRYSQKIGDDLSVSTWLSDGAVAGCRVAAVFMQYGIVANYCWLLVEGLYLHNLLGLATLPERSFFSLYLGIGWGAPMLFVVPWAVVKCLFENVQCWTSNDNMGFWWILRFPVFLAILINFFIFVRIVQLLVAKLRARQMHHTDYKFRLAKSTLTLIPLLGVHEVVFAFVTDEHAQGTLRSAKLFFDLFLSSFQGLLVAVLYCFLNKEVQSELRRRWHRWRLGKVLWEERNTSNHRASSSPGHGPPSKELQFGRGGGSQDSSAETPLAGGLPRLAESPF

[10] = target: T1, soluble human GCGR extracellular domain; experiment: Octet epitope binning; antibody in solution on GCGR ECD held by immobilized 1B4 (competitor)
Protocol: as §1

[11] = target: T1, soluble human GCGR extracellular domain; experiment: Octet epitope binning; antibody in solution on GCGR ECD held by immobilized 1H7 (competitor)
Protocol: as §1

[12] = target: T1, soluble human GCGR extracellular domain; experiment: Octet epitope binning; antibody in solution on GCGR ECD held by immobilized 1D2 (competitor)
Protocol: as §1

[13] = target: T1, soluble human GCGR extracellular domain; experiment: Octet epitope binning; antibody in solution on GCGR ECD held by immobilized 1C1 (competitor)
Protocol: as §1

[14] = target: T1, soluble human GCGR extracellular domain; experiment: Octet epitope binning; antibody in solution on GCGR ECD held by immobilized 1G7 (competitor)
Protocol: as §1

[15] = target: T1, soluble human GCGR extracellular domain; experiment: Octet epitope binning; antibody in solution on GCGR ECD held by immobilized 14F4 (competitor)
Protocol: as §1

[16] = target: T1, soluble human GCGR extracellular domain; experiment: Octet epitope binning; antibody in solution on GCGR ECD held by immobilized 1C3 (competitor)
Protocol: as §1

T1 sequence (P47871 26-136 limits assumed): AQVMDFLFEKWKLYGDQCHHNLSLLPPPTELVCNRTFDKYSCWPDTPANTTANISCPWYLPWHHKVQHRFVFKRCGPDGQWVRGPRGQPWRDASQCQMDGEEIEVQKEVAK

B1: anti-GCGR antibody 6B5 (antibody, V domains shown)
VH: QVQLQQSGTELVRPGTSVKISCKASGFTFTNHWLGWVKQRPGHGLEWIGDIYPGGYYINYNEKFKGKATLTADTSSSTAYMQLSSLTSEDSAVYFCARHTNYGSDYWGQGTTLTVSS
VL: DVLMTQIPLSLPVSLGDQASISCRSSQSIVDSYGNTFLEWYLQKPGQSPKLLIYKVSNRLSGVPDRFSGTGAGTDFTLKISRVEAEDLGIYYCFQGSHVPWTFGGGTKLEIK
notes: mouse hybridoma monoclonal antibody; also called 61B5
- Shift on Octet by Antibody in Solution (nm) [1]: < 0.05 nm
- Shift on Octet by Antibody in Solution (nm) [2]: < 0.05 nm
- Shift on Octet by Antibody in Solution (nm) [3]: < 0.05 nm
- Shift on Octet by Antibody in Solution (nm) [4]: < 0.05 nm
- Kd [5]: 0.22 nM
- Shift on Octet by Antibody in Solution (nm) [6]: < 0.05 nm
- Shift on Octet by Antibody in Solution (nm) [7]: < 0.05 nm
- Shift on Octet by Antibody in Solution (nm) [8]: < 0.05 nm
- cAMP assay-1 IC50 [9]: 6.42 nM
- cAMP assay-2 IC50 [9]: 12.3 nM
- cAMP assay-3 IC50 [9]: 2.07 nM
- Shift on Octet by Antibody in Solution (nm) [10]: < 0.05 nm
- Shift on Octet by Antibody in Solution (nm) [11]: < 0.05 nm
- Shift on Octet by Antibody in Solution (nm) [12]: < 0.05 nm
- Shift on Octet by Antibody in Solution (nm) [13]: < 0.05 nm
- Shift on Octet by Antibody in Solution (nm) [14]: < 0.05 nm
- Shift on Octet by Antibody in Solution (nm) [15]: < 0.05 nm
- Shift on Octet by Antibody in Solution (nm) [16]: < 0.05 nm

B2: anti-GCGR antibody 14F4 (antibody, V domains shown)
VH: QVQLQQSGAELVRPGTSVNMSCKATGYTFTNYWIGWVKQRPGHGLEWIGDIFPGGFYSNYNEKFKGKATLTTDTSSSTGYMQLSSLTSEDSAIYYCARIWDRGFDYWGQGTTLTVSS
VL: DVLMTQSPLSLPVSLGDQASISCRSSQSIVDSYGNTYLEWYLQKPGQSPKLLIYKVSNRFSGVPDRFSGSGSGTDFTLKISRVEAEDRGLYYCFQGSHVPYTFGGGTKLEIK
notes: mouse hybridoma monoclonal antibody; also called 141F4
- Kd [5]: 0.57 nM
- cAMP assay-1 IC50 [9]: 16 nM
- cAMP assay-3 IC50 [9]: 6.48 nM

B3: anti-GCGR antibody 4F8 (antibody, V domains shown)
VH: QVQLQQSGAELVRPGTSVTMSCKAAGYTFSNYWIGWVKQRPGHGLEWIGDIYPGGFYDNYNDKFKGKATLTTDTSSSTAYMQLSSLTSEDSAIYYCTRSGGLPGAGFTYWGQGTLVTVSA
VL: DVLMTQTPLSLPVSLGDQASISCRSSQHIVYSDGNTYLEWYLQKPGQSPKLLIYKVSNRFSGVPDRFSGSGSGTDFTLEISRVEAEDLGVYYCFQGSHVPWTFGGGTKLEIK
notes: mouse hybridoma monoclonal antibody
- Kd [5]: 0.5 nM
- cAMP assay-3 IC50 [9]: 3.84 nM

B4: anti-GCGR antibody 14E9 (antibody, V domains shown)
VH: QVQLQQSGAELVRPGTSVKMSCKAAGYTFTNYWIGWVKQRPGHGLEWIGDISPGNYYTNYNAKFKDKVSLTADTSSSTAYMQLSSLTSEDSAIYYCARYDEFAYWGQGTLVTVSA
VL: DVLMTQTPLSLSVSLGDQASISCRSSQSIVHSDGNTYLEWYLQKPGQSPKLLIYKVSNRFSGVPDRFSGSGSGTDFTLKISRVEAEDLGVYYCFQGSHVPWTFGGGTKLEIK
notes: mouse hybridoma monoclonal antibody; also called 13E9
- Kd [5]: 0.8 nM
- cAMP assay-1 IC50 [9]: 24.6 nM
- cAMP assay-3 IC50 [9]: 1.32 nM

B5: anti-GCGR antibody 1C3 (antibody, V domains shown)
VH: EVQLQQSGPELVKPGASVKMSCKASGYTFTSSVMHWVKQKPGQALEWIGYINPYNDGTKYNENFKGKATLTSDRSSTTAYMELSSLTSEDSAVYYCVTGAGYDRGPMAMDYWGQGTSVTVSS
VL: NIVLTQSPASLAVSLGQRATISCRASESVDSYGDSFVHWYQQKPGQPPKLLIYFASNLESGVPARFSGSGSRTDFTLTIDPVEADDTATYYCQQNNEVPFTFGSGTKLELK
notes: as for B3
- Kd [5]: 1.4 nM
- cAMP assay-1 IC50 [9]: 6.42 nM
- cAMP assay-2 IC50 [9]: 13.6 nM

B6: anti-GCGR antibody 5B11 (antibody, V domains shown)
VH: QVQLQQSGAELVKPGASVKLSCKASGNTFTSHWMHWVKQRPGQGLEWIGMSHPNSGSSNYSGKFKSKATLTVDRSSSTAYMQLNSLTSEDSAVYYCARTDYDYDGDYWGQGTTLTVSS
VL: DVVLTQTPLSLPVNIGDQASISCKSSKSLLNSDGLTYLDWYLQKPGQSPQLLIYLVSNRFSGVPDRFSGSGSGTDFTLKISRVEADDLGVYYCFQSNFLPLTFGAGTKLELK
notes: as for B3
- Shift on Octet by Antibody in Solution (nm) [1]: < 0.05 nm
- Shift on Octet by Antibody in Solution (nm) [2]: < 0.05 nm
- Shift on Octet by Antibody in Solution (nm) [3]: < 0.05 nm
- Shift on Octet by Antibody in Solution (nm) [4]: < 0.05 nm
- Kd [5]: 1.2 nM
- Shift on Octet by Antibody in Solution (nm) [6]: < 0.05 nm
- Shift on Octet by Antibody in Solution (nm) [7]: < 0.05 nm
- Shift on Octet by Antibody in Solution (nm) [8]: < 0.05 nm
- cAMP assay-1 IC50 [9]: 7.22 nM
- Shift on Octet by Antibody in Solution (nm) [10]: < 0.05 nm
- Shift on Octet by Antibody in Solution (nm) [11]: < 0.05 nm
- Shift on Octet by Antibody in Solution (nm) [12]: < 0.05 nm
- Shift on Octet by Antibody in Solution (nm) [13]: < 0.05 nm
- Shift on Octet by Antibody in Solution (nm) [14]: < 0.05 nm
- Shift on Octet by Antibody in Solution (nm) [15]: < 0.05 nm
- Shift on Octet by Antibody in Solution (nm) [16]: < 0.05 nm

B7: anti-GCGR antibody 1C1 (antibody, V domains shown)
VH: EVQLQQSGPELVKPGATVKMSCKASGYTFTRNVIHWVKQKPGQGLEWIGYINPYNDGAKYNAKFKGKATVTSDKSSSTAYMELSSLTSEDSAVYYCARWGNYEDFAMDYWGQGTSVTVSS
VL: NIVLTQSPPSLAVSLGQRATISCRASESVDIYGNSYMHWYQQKPGQPPKLLIYLASNLESGVPARFSGSGSRTEFSLTIDPVEAGDAATYYCQQNNEDPFTFGGGTKLEIK
notes: as for B3
- Kd [5]: 1.9 nM
- cAMP assay-2 IC50 [9]: 14.3 nM

B8: anti-GCGR antibody 1H2 (antibody, V domains shown)
VH: QVQLQQPGAELVKPGASVKMSCKVSGYTFTSYWITWVKQRPGQGLEWIGDIHPGGGDTNYNKKFKSKATLTVDTSSSTAYMQLSSLTSEDSAVYHCTSDDNYVGFTYWGQGTLVTVSA
VL: DVLMTQTPLSLPVSLGDQASISCRSSQTIIHSDGNTYLEWYLQKPGQSPILLIYKVSNRFSGVPDRFSGSGSGTDFTLKISRVEAEDLGVYYCFQGSHVPWTFGGGTKLEIK
notes: as for B3
- Kd [5]: 3.7 nM
- cAMP assay-1 IC50 [9]: 3.78 nM

B9: anti-GCGR antibody 13G9 (antibody, V domains shown)
VH: QVQLQQSGAELVRPGTSVKISCKASGYTFTNYWLGWVKQRPGHGLEWIGDIYPGGDYNNYNGKFKGKATLTADTSSSTAYIQLSSLTSEDSAVYFCVRSDDGYSWGQGTTLTVSS
VL: DVLMTQTPLSLPVSLGDQASISCRSSQSIVDSYGNTYLEWYQQKPGQSPTLLIYKVSNRFAGVPDRFSGSGSGTDFTLKISRVEAEDLGVYYCFQGSHIPWTFGGGTKVEIK
notes: mouse hybridoma monoclonal antibody; also called 13G19
- Kd [5]: 0.25 nM
- cAMP assay-1 IC50 [9]: 7.22 nM
- cAMP assay-3 IC50 [9]: 0.99 nM
